According to patent US20220347265:

What follows are substances tested against C3b (Complement Technology, Cat #A114), labeled with ANS (UniProt P01024).
Chain of UniProt P01024 (P01024 whole entry, looked up): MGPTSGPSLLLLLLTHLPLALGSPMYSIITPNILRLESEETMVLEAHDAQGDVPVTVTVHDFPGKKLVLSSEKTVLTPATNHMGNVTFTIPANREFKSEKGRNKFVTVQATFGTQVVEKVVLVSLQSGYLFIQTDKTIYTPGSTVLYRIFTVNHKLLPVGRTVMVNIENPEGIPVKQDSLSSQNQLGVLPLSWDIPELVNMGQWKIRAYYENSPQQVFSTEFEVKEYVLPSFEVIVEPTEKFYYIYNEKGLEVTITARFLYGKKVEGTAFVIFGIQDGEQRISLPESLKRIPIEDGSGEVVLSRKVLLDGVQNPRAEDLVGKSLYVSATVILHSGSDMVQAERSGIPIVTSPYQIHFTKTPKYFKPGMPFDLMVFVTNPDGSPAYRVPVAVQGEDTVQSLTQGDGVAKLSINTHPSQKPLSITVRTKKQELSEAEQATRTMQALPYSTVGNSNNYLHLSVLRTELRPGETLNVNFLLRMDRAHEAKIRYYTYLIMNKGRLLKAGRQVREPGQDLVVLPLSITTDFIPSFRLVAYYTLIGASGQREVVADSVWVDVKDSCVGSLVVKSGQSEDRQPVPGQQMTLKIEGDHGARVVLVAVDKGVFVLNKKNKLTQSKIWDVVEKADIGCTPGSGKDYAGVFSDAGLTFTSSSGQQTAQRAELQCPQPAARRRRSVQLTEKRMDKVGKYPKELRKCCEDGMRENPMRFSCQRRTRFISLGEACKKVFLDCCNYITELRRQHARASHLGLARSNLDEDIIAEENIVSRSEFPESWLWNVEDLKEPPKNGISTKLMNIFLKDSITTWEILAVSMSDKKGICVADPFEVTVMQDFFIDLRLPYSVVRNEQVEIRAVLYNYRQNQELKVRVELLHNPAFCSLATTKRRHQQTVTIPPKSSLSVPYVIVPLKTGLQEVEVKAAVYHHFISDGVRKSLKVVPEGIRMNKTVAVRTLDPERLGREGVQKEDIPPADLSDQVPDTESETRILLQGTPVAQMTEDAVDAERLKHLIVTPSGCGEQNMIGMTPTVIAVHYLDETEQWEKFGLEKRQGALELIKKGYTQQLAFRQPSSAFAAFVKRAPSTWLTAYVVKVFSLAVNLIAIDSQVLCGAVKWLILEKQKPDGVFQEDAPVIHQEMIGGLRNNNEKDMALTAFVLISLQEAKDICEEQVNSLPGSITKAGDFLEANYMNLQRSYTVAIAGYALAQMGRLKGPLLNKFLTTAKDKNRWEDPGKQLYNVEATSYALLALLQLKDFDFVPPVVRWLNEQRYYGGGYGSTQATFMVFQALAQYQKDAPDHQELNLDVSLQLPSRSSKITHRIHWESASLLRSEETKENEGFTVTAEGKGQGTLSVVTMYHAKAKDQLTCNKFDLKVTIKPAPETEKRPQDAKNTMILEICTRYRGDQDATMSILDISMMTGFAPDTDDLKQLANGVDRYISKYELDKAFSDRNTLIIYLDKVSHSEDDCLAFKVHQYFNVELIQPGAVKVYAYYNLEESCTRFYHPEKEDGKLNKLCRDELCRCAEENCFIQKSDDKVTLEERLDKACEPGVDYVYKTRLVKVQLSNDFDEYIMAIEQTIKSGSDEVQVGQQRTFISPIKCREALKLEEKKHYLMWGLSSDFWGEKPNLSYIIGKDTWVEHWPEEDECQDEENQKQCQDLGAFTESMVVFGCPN

| Substance | fluorescence cofactor assay: cleavage of ANS-labeled C3b to iC3b (change in RFUs over time), with cofactor CFH, MCP or CR1, against wild type CFI |
| --- | --- |
| P553S CFI protein | certain CFI mutations (G119R, A240G, and P553S) were associated with greatly reduced CFI protein function |
| G119R CFI protein | certain CFI mutations (G119R, A240G, and P553S) were associated with greatly reduced CFI protein function |
| A300T CFI protein | the A300T mutation appeared to have relatively little impact on CFI function |
| A240G CFI protein | certain CFI mutations (G119R, A240G, and P553S) were associated with greatly reduced CFI protein function |
